Molecular target: rabies virus glycoprotein (G) (rabies virus (strain CVS-27)) (UniProt O92284)
Assay: cryo-electron tomography

“rabies virus glycoprotein (G) (from UniProt O92284 20-524) (natural protein)” was tested, and the stoichiometry N was 3.
